2 substances from patent publication US20100008937A1 can be followed below.

The target in test [1] is human HA (high-affinity) LFA-1 on stably transfected K562 cells (human) (UniProt P20701). In words: cell-based or functional assay.
Test [2] deals with human WT LFA-1 on stably transfected K562 cells (human) (UniProt P20701). In words: cell-based or functional assay.
human WT LFA-1 on stably transfected K562 cells (human), sequence (P20701 26-1170, chain 1 of 2): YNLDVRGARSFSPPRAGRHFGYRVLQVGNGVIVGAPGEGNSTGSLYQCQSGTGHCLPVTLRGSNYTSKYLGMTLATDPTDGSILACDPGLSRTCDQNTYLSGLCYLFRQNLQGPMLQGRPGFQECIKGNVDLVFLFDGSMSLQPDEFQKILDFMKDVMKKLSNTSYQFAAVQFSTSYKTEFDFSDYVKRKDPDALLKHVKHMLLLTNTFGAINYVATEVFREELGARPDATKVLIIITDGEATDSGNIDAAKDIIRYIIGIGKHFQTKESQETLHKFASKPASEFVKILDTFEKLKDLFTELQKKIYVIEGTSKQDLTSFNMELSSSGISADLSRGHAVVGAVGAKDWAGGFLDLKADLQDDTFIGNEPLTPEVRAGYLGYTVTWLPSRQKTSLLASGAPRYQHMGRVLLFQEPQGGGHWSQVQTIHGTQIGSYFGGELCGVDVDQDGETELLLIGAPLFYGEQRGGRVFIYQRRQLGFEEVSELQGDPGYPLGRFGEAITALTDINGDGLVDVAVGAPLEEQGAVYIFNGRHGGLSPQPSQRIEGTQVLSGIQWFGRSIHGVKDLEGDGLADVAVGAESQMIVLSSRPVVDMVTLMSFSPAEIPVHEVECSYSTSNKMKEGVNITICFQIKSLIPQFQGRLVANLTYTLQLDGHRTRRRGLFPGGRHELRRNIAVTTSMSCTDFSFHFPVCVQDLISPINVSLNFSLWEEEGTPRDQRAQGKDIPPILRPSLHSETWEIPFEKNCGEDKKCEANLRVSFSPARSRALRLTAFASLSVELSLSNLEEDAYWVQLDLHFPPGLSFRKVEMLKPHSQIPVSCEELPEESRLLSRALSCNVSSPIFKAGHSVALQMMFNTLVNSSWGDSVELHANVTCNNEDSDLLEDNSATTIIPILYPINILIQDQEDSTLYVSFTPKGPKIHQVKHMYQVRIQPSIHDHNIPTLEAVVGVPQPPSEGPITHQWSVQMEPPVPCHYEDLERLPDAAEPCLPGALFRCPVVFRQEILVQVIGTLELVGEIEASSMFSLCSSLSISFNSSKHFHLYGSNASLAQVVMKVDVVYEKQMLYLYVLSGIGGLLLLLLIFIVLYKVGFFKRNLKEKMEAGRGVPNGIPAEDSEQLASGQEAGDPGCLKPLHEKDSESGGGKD
human WT LFA-1 on stably transfected K562 cells (human), sequence (P05107 23-769, chain 2 of 2, further chain): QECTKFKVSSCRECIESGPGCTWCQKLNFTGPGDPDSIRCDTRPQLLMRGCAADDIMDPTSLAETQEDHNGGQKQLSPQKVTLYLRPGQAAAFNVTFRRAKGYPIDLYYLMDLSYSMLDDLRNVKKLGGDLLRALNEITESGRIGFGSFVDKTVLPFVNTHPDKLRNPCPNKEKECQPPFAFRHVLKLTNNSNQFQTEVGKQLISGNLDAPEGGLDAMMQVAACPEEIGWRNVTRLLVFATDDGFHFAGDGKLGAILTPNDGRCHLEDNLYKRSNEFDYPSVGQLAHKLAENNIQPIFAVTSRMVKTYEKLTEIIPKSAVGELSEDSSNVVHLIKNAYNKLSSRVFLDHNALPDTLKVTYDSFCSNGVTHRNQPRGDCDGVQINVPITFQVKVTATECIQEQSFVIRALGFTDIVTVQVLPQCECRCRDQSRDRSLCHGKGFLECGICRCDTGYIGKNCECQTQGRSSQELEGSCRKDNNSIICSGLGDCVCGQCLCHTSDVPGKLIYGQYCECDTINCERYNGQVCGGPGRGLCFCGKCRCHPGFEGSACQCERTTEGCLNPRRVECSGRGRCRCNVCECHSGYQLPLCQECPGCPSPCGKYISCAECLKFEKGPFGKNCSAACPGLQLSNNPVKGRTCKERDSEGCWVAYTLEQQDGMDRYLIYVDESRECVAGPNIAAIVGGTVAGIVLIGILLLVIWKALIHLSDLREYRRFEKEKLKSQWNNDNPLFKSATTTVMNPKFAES

human HA (high-affinity) LFA-1 on stably transfected K562 cells (human), sequence (P20701 26-1170 K312C/K319C limits assumed, chain 1 of 2): as the sequence (P20701 26-1170, chain 1 of 2) above, with K287C, K294C counted along it
human HA (high-affinity) LFA-1 on stably transfected K562 cells (human), sequence (P05107 23-769 limits assumed, chain 2 of 2, further chain): as the sequence (P05107 23-769, chain 2 of 2, further chain) above

In the case of “TS1/22-protamine fusion protein (scFv TS1/22 fused to human protamine residues 8-29, His6 tag) (from UniProt P04553 8-29)”, the Cy3+ K562 cells/Total K562 cells, % (in vivo Cy3-siRNA delivery) was found to be 87.4% in test [1] and 88.5% in test [2].
With “AL-57-protamine fusion protein (scFv AL-57 fused to human protamine residues 8-29, His6 tag) (from UniProt P04553 8-29)”, the Cy3+ K562 cells/Total K562 cells, % (in vivo Cy3-siRNA delivery) stood at 88.1% in test [1] and 23.3% in test [2].
